What was measured:
[1] = biological target: feline immunodeficiency virus (FIV) Env, Villefranche strain, expressed by ALVAC recombinants vCP242 / vCP255 (feline immunodeficiency virus, Villefranche strain); test: sandwich kinetic ELISA, plate coated with pooled FIV gag-specific MAb 2 ug/well (mismatched capture control), env lysate 1 ug/well, control rabbit serum 1:100
[2] = biological target: feline immunodeficiency virus (FIV) Env, Villefranche strain, expressed by ALVAC recombinants vCP242 / vCP255 (feline immunodeficiency virus, Villefranche strain); test: sandwich kinetic ELISA, plate coated with pooled FIV env-specific MAb 2 ug/well, env lysate 1 ug/well, control rabbit serum 1:100
[3] = biological target: feline immunodeficiency virus (FIV) Env, Villefranche strain, expressed by ALVAC recombinants vCP242 / vCP255 (feline immunodeficiency virus, Villefranche strain); test: sandwich kinetic ELISA, plate coated with pooled FIV env-specific MAb 2 ug/well, env lysate 0.2 ug/well, control rabbit serum 1:100
[4] = biological target: feline immunodeficiency virus (FIV) Env, Villefranche strain, expressed by ALVAC recombinants vCP242 / vCP255 (feline immunodeficiency virus, Villefranche strain); test: sandwich kinetic ELISA, plate coated with pooled FIV env-specific MAb 2 ug/well, env lysate 5 ug/well, control rabbit serum 1:100
[5] = biological target: feline immunodeficiency virus (FIV) Env, Villefranche strain, expressed by ALVAC recombinants vCP242 / vCP255 (feline immunodeficiency virus, Villefranche strain); test: sandwich kinetic ELISA, plate coated with pooled FIV gag-specific MAb 2 ug/well (mismatched capture control), env lysate 5 ug/well, control rabbit serum 1:100
[6] = biological target: feline immunodeficiency virus (FIV) Env, Villefranche strain, expressed by ALVAC recombinants vCP242 / vCP255 (feline immunodeficiency virus, Villefranche strain); test: sandwich kinetic ELISA, plate coated with pooled FIV gag-specific MAb 2 ug/well (mismatched capture control), env lysate 0.2 ug/well, control rabbit serum 1:100

Rabbit A039 prebleed serum showed a KELISA (mOD/min) [1] of 1.2 mOD/min, a KELISA (mOD/min) [2] of 0.7 mOD/min and a KELISA (mOD/min) [3] of 0.9 mOD/min. For the same substance, the KELISA (mOD/min) [4] was 0.9 mOD/min, the KELISA (mOD/min) [5] was 1 mOD/min and the KELISA (mOD/min) [6] was 1 mOD/min.

From patent publication US7255862
